Literature values in paper PMC9914670.

Assays:
[1] = molecular target: ATP5A1/5B complex (Homo sapiens) (UniProt P25705); assay: QCM
[2] = molecular target: TLR4/MD2 complex (Homo sapiens) (UniProt O00206); assay: QCM
[3] = molecular target: ATP5A1 (F1 ATPase alpha subunit) (Homo sapiens) (UniProt P25705); assay: ELISA
[4] = molecular target: ATP5A1/5B complex (Homo sapiens) (UniProt P25705); assay: ELISA
[5] = molecular target: ATP5B (F1 ATPase beta subunit) (Homo sapiens) (UniProt P06576); assay: ELISA
Sequence of ATP5B (F1 ATPase beta subunit) (Homo sapiens) (P06576 48-529): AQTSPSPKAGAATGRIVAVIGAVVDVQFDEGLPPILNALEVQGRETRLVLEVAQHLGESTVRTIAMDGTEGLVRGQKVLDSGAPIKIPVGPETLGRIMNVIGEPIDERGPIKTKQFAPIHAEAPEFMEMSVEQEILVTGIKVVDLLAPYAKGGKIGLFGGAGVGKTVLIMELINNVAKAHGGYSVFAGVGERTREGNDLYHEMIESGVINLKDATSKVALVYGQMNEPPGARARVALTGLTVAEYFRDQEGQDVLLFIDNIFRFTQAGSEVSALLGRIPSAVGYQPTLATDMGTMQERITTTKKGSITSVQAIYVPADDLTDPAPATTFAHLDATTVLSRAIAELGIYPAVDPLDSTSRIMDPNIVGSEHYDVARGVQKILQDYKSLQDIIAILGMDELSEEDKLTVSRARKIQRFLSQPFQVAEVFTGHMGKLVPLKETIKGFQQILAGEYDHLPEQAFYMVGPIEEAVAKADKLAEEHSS

Sequence of Prothymosin alpha (P06302 2-112): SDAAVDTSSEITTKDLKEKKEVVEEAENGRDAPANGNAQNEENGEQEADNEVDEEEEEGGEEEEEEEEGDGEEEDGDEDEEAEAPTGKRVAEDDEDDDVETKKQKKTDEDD
Sequence of ATP5A1/5B complex (Homo sapiens) (P25705 44-553, chain 1 of 2): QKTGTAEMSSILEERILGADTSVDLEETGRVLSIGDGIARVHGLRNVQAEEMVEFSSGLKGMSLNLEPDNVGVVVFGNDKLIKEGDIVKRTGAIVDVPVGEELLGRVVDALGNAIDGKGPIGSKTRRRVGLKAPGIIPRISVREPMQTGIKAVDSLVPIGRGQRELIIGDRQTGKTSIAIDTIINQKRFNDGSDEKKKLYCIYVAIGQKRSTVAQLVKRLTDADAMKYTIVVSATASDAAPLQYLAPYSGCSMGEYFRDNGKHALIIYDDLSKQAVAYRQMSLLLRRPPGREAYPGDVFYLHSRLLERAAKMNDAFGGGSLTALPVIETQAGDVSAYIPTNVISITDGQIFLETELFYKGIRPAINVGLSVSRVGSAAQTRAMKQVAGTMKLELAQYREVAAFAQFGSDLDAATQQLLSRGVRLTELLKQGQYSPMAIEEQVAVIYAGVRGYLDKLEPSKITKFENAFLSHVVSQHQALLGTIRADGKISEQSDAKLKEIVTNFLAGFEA
Sequence of ATP5A1/5B complex (Homo sapiens) (P06576 48-529, chain 2 of 2, further chain): as the sequence (P06576 48-529) above
Sequence of TLR4/MD2 complex (Homo sapiens) (O00206 24-839, chain 1 of 2): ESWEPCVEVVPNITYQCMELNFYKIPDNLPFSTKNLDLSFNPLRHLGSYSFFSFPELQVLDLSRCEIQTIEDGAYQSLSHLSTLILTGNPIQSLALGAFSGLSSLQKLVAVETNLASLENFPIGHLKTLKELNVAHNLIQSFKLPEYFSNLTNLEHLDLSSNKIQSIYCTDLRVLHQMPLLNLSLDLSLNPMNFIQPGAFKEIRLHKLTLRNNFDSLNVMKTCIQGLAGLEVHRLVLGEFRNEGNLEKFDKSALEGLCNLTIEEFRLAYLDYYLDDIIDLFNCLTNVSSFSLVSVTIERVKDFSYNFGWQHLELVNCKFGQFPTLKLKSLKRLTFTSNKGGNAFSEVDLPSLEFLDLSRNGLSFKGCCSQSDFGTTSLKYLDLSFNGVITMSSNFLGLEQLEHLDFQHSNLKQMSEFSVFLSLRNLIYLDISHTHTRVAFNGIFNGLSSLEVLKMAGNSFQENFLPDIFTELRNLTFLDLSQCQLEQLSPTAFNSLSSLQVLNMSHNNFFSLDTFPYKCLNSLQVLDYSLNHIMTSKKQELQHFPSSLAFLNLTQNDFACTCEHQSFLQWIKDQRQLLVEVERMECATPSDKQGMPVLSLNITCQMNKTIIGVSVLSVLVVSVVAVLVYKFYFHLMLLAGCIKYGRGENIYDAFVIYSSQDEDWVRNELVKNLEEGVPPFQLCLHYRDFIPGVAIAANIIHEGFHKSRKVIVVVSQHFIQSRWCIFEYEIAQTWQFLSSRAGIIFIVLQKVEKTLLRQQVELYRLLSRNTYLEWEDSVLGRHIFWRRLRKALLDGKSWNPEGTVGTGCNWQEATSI
Sequence of TLR4/MD2 complex (Homo sapiens) (Q9Y6Y9 19-160, chain 2 of 2, further chain): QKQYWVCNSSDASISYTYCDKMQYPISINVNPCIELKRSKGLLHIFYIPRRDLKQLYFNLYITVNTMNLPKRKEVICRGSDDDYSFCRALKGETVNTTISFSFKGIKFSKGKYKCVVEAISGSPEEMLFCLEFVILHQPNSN
Sequence of ATP5A1 (F1 ATPase alpha subunit) (Homo sapiens) (P25705 44-553): as the sequence (P25705 44-553, chain 1 of 2) above

With Prothymosin alpha (from UniProt P06302) as the substance, how does the Kd [1] read?
Its Kd is 28.1 nM.

And the Kd [2]?
The Kd was 16100 nM.

And the Kd [3]?
Its Kd is 68 nM.

And the Kd [4]?
Its Kd is 55.8 nM.

What about the Kd [5] of the same substance?
The Kd was 241 nM.
